These results are taken from patent US20240307439A1 (ARCELLX, published 2024).

In one assay the target is T1, CD123-Fc (Homo sapiens (Human), UniProt P26951 19-305).
T1 construct: not shown: Fc part not described
T1 sequence: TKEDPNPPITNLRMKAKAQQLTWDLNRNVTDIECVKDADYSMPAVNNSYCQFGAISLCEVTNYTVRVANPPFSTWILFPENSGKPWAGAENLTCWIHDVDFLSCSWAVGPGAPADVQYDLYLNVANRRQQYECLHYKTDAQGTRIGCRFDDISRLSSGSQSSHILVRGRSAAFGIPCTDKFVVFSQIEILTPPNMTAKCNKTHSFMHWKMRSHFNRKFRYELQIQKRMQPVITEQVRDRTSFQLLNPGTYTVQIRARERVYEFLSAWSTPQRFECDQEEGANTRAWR
Briefly: flow cytometry, Adapter held on af03-CAR Jurkat cells, CD123-Fc detected with Anti-Fc A488. How it is done:
(§1) 10⁵ Jurkat NFAT-Luciferase transduced with an AFP (p26)-binding CAR (af03) were incubated with a total of 0.5 μg of Adapter proteins at various ratios of the BCMA- to CD123-specific Adapters (4° C. for 20 minutes), washed, and then incubated with CD123-Fc and biotinylated BCMA (0.5 μg of each) (4° C. for 20 minutes), washed, then binding detected with Anti-Fc A488 and Streptavidin-PE. FIG. 8A presents a flow cytometric analysis of CD123-binding and BCMA-binding to their respective target proteins, FIG. 8B provides a comparison of mean fluorescence intensity (MFI) of A488 MFI (CD123-binding, left axis) and PE MFI (BCMA-binding, right axis) flow cytometric data presented in FIG. 8A.
(§2) 10⁵ Jurkat NFAT-Luciferase transduced with a p26-binding CAR (af03, SEQ ID NO: 1092) were incubated with a total of […] of Adapters (SEQ ID NO: 1084, SEQ ID NO: 1085) at the indicated ratios at 4° C. for 20 minutes, washed, and then incubated with CD123-Fc and biotinylated BCMA (0.5 μg of each/(4° C. for 20 minutes), washed, then binding detected with Anti-Fc A488 and Streptavidin-PE. FIG. 8A presents a flow cytometric analysis of CD123-binding and BCMA-binding to their respective target proteins, FIG. 8B provides a comparison of mean fluorescence intensity (MFI) of A488 MFI (CD123-binding, left axis) and PE MFI (BCMA-binding, right axis) flow cytometric data presented in FIG. 8A.

For another assay, the target named is T2, biotinylated BCMA (Homo sapiens (Human), UniProt Q02223 1-54, biotinylated).
T2 sequence: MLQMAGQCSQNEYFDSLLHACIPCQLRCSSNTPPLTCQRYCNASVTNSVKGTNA
Description: flow cytometry, Adapter held on af03-CAR Jurkat cells, biotinylated BCMA detected with Streptavidin-PE. How it is done: as §1, §2

In a further assay the target is T3, BCMA-binding CAR (bc40).
T3 construct: D domain CAR on Jurkat reporter cells or T cells; The entry includes signal peptide and FLAG tag; also called BCMA-specific D domain CAR; CTsp-Flag-GSlinker-bc40-GSlinker-CD8H-TM-41BB-CD3ζ
T3 sequence (chain, as listed by the source): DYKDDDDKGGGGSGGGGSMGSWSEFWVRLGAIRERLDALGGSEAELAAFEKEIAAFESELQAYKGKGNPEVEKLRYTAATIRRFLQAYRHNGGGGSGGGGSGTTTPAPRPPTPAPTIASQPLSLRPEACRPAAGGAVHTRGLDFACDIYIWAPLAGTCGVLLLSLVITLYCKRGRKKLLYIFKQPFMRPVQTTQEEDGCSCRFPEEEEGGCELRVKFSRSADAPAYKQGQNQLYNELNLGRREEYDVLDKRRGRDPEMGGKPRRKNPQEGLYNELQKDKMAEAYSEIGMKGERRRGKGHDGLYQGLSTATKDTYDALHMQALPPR
Briefly: flow cytometry, CAR-transduced Jurkat cells incubated with 0.5 µg Adapter, stained with anti-HIS PE.

Assay [1] deals with T4, BCMA on tumor cells (NCI-H929, U266, MM.1S, NALM6-BCMA) (Homo sapiens (Human), UniProt Q02223 1-184).
T4 construct: also called BCMA+ tumor target
T4 sequence: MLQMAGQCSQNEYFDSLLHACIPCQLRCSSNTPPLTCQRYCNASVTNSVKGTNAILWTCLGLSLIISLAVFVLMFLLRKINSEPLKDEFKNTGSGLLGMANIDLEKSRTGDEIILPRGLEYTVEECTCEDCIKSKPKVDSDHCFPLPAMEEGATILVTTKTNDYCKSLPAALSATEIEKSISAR
Briefly: flow cytometry of NALM6-BCMA tumor cells flushed from femurs of mice after I.V. Adapter administration.

B1: cg06-p26 Adapter (designed binder)
chain: DEHHHHHHHHHHKLENLYFQGGGGGSMGSWDEFGRRLYAIEWRLYALGGSEAELAAFEKEIAAFESELQAYKGKGNPEVEKLREIAAVIRSNLQAYRHNGGGGSGGGGSGGGGSLEKCFQTENPLECQDKGEEELQKYIQESQALAKRSCGLFQKLGEYYLQNAFLVAYTKKAPQLTSSELMAITRKMAATAATCCQLSEDKLLACGEGAADIIIGHLCIRHEMTPVNPGVGQCCTSSYANRRPCFSSLVVDETYVPPAFSDDKFIFHKDLCQAQGVALQTMKQEFLINLVKQKPQITEEQLEAVIADFSGLLEKCCQGQEQEVCFAEEGQKLISKTRAALGV
notes: Soluble fusion: HIS tag, cg06 D domain, linker, p26; also called cg06-AFP (p26) Adapter; CD123 (cg06)-AFP (p26) Adapter
Turning to B1, the binding result with CD123-Fc is “binds”.

B2: bc40-p26 Adapter (designed binder)
chain: DEHHHHHHHHHHKLENLYFQGGGGGSMGSWSEFWVRLGAIRERLDALGGSEAELAAFEKEIAAFESELQAYKGKGNPEVEKLRYTAATIRRFLQAYRHNGGGGSGGGGSGGGGSLEKCFQTENPLECQDKGEEELQKYIQESQALAKRSCGLFQKLGEYYLQNAFLVAYTKKAPQLTSSELMAITRKMAATAATCCQLSEDKLLACGEGAADIIIGHLCIRHEMTPVNPGVGQCCTSSYANRRPCFSSLVVDETYVPPAFSDDKFIFHKDLCQAQGVALQTMKQEFLINLVKQKPQITEEQLEAVIADFSGLLEKCCQGQEQEVCFAEEGQKLISKTRAALGV
notes: Soluble fusion: HIS tag, bc40 D domain, linker, full-length p26; also called bc40-AFP (p26) Adapter; HIS tag-BCMA(bc40)-p26
For B2, the binding result with biotinylated BCMA was “binds”.

B3: Cg06-BCMA Adapter (designed binder)
chain: DEMGSWDEFGRRLYAIEWRLYALGGSEAELAAFEKEIAAFESELQAYKGKGNPEVEKLREIAAVIRSNLQAYRHNGGGGSGGGGSGGGGSGMLQMAGQCSQNEYFDSLLHACIPCQLRCSSNTPPLTCQRYCNASVTNSVKGTNAGGGGSGGGGSGGGGSHHHHHHHHHH
notes: Soluble fusion: cg06 D domain, linker, BCMA extracellular domain, linker, HIS tag; also called CD123(cg06)-BCMS-HIS tag
For B3, the binding result with BCMA-binding CAR (bc40) is given as “binds”.

B4: α3D-BCMA Adapter (designed binder)
chain: DEGGGGSMGSWAEFKQRLAAIKTRLQALGGSEAELAAFEKEIAAFESELQAYKGKGNPEVEALRKEAAAIRDELQAYRHNGGGGSGGGGSGGGGSGMLQMAGQCSQNEYFDSLLHACIPCQLRCSSNTPPLTCQRYCNASVTNSVKGTNAGGGGSGGGGSGGGGSHHHHHHHHHH
notes: Soluble fusion: targetless α3D domain, linker, BCMA extracellular domain, HIS tag; also called none(α3D)-BCMA-HIS tag
Turning to B4, the binding result with BCMA-binding CAR (bc40) was “binds”.

B5: BCMA specific Adapter (bc98-p26-bc98) (designed binder)
chain: MGSWSEFWARLGAIRERLDALGGSEAELAAFEKEIAAFESELQAYKGKGNPEVEKLRYTAGTIKRFLQAYRHNGGGGDGGGGSGGGGSGLEKCFQTENPLECQDKGEEELQKYIQESQALAKRSCGLFQKLGEYYLQNAFLVAYTKKAPQLTSSELMAITRKMAATAATCCQLSEDKLLACGEGAADIIIGHLCIRHEMTPVNPGVGQCCTSSYANRRPCFSSLVVDETYVPPAFSDDKFIFHKDLCQAQGVALQTMKQEFLINLVKQKPQITEEQLEAVIADFSGLLEKCCQGQEQEVCFAEEGQKLISKTRAALGVGGGGSGGGGSGGGGSMGSWSEFWARLGAIRERLDALGGSEAELAAFEKEIAAFESELQAYKGKGNPEVEKLRYTAGTIKRFLQAYRHN
notes: also called SPRX-BCMA; sparX-BCMA
As to B5, the binding result in assay [1] is on record as “binds”.
